# Test results from paper PMC8716928.
# B1: GvpA, entire protein, split-GFP fusion (natural protein)
# chain: MAQPDSSGLAEVLDRVLDKGVVVDVWARVSLVGIEILTVEARVVAASVDTFLHYAEEIAKIEQAELTAGAEAAPEA
# Target: Fragment F109–221 of GvpF, split-GFP fusion (Halobacterium salinarum)
# Experiment: split reporter (BiFC, NanoBiT); split-GFP (mGFP2) in Hfx. volcanii transformants, entire Gvp proteins and fragments (Figure 7); arrangement of the GFP portions not stated; relative fluorescence (rf) of cells against untransformed WR340
row,Binder,relative fluorescence (rf)
1,B1,< 4 rf
2,"MAQPDSSGLAEVLDRVLDKGVV [Fragment A1–22 of GvpA, split-GFP fusion]",< 4 rf
